Read-outs that look alike come from different tables or passages of the source.
Tests used:
non-reducing SDS-PAGE [1] = biological target: the molecule itself; experiment: non-reducing SDS-PAGE
non-reducing SDS-PAGE [2] = biological target: the molecule itself; experiment: non-reducing SDS-PAGE; remark: listed apart in the source

B1: Fgf15 (wild-type, mouse), in Hek293T conditioned medium (ligand, UniProt O35622 26-218, looked up)
chain: RPLAQQSQSVSDEDPLFLYGWGKITRLQYLYSAGPYVSNCFLRIRSDGSVDCEEDQNERNLLEFRAVALKTIAIKDVSSVRYLCMSADGKIYGLIRYSEEDCTFREEMDCLGYNQYRSMKHHLHIIFIQAKPREQLQDQKPSNFIPVFHRSFFETGDQLRSKMFSLPLESDSMDPFRMVEDVDHLVKSPSFQK
- stoichiometry N (non-reducing SDS-PAGE [1]): 2

B2: Fgf15 (wild-type, mouse), in serum of mice after hydrodynamic delivery of the plasmid (ligand, UniProt O35622 26-218, looked up)
chain: B1 chain
- stoichiometry N (non-reducing SDS-PAGE [2]): 2

From PMC12315504 (The FASEB Journal, 2021)
